{
  "source": "the DeepSol protein solubility set",
  "experiment": "soluble on expression in E. coli; label from the status in PepcDB or PDB records",
  "data": [
    {"sequence": "MSLTPEIPPKNFTPHLPEDYDARISGVLPYYSSFHQETINLVKSLPSSPKIWMDTGCGTGSLINKAIEEFLDTKFLLLDPSESMLEQAKGKLSFYPDGKVEFLKASSTQEFSQELEEKPDVITAIQCHHYLSLEDRSRATRVCYNLLKEGGIYITFENIRPLTEEGVAVGKRYWGKFQSLHGRKEKEIQTHLERFDTEYFPITVEEHLKLLRDTGFRTVELFWYSYMQAGFYCIKEGHHHHHH", "values": [
      {"measurement": "soluble on expression in E. coli", "result": "soluble"}
    ]},
    {"sequence": "MVESKATLEEYVQTQLLQNWIYNDGAYLSLAFDAMCEGNFDRLCELDWQLSATKVARESREGSFKLGVRLLKIFIRYETHTLLTAYQQAIAEKRVQGYFPIVFAMVAQAMGLSKADTLYAFYYNAAVGVITNGVKLIPLSQMDGQDILFDLRGSLVQAVELSLDPDEEWLGAATLANDIRAMQHEVLYTRLYMSLEHHHHHH", "values": [
      {"measurement": "soluble on expression in E. coli", "result": "not soluble"}
    ]},
    {"sequence": "MGSDKIHHHHHHMFSAMLEVNPIPEQFDAYLGMAKMLRPELEKIEGFIDNERYESLTRPGWLLSLSNWRDEKSLIRWRTTTKHHKVQQAARDRIFADYRLRIGEVDTDTHLPIGEALHQQRLDVTEAGEGKAVTLLDADRSRYWLNGASAEAVAKSLGLDAQARGLLAWDVFKALLSPEEVIVVLTWRDEAAALAFGKNARLPGDVRLRSIRIVREYGMFDRREAPQYFEEVPRKA", "values": [
      {"measurement": "soluble on expression in E. coli", "result": "not soluble"}
    ]},
    {"sequence": "MGSDKIHHHHHHMDIRSLKLYLHLCDSLHFAKTAEQMHMSPSTLSRTLQRLEDEVGGKLFERDNRSVALTHAGKEFKLFAEHTLSQWLSLKGKVDPQQAQLHGQLSLYCSVTAAYSHLPKLLDRFRSIHPNVDIKLATGDAANAVNELNRNRADIAIIALPDNLASSLFFTAIDKVPLSLIVPTITCPVQQAISQANIAWQDLPYIVPEHGPGRQRADNWFKAMGFKPNIYAQVAGQEAIASMVALGCGVAISPEVVINNSPVRDRIQMLASPITIPAFELGFCCKKKRLEEAVLKAFLASWAIE", "values": [
      {"measurement": "soluble on expression in E. coli", "result": "not soluble"}
    ]},
    {"sequence": "MSLKVLAAMSGGVDSSVAAARMVDAGHEVVGVHMALSTAPGTLRTGSRGCCSKEDAADARRVADVLGIPFYVWDFAEKFKEDVINDFVSSYARGETPNPCVRCNQQIKFAALSARAVALGFDTVATGHYARLSGGRLRRAVDRDKDQSYVLAVLTAQQLRHAAFPIGDTPKRQIRAEAARRGLAVANKPDSHDICFIPSGNTKAFLGERIGVRRGVVVDADGVVLASHDGVHGFTIGQRRGLGIAGPGPNGRPRYVTAIDADTATVHVGDVTDLDVQTLTGRAPVFTAGAAPSGPVDCVVQVRAHGETVSAVAELIGDALFVQLHAPLRGVARGQTLVLYRPDPAGDEVLGSATIAGASGLSTGGNEGHHHHHH", "values": [
      {"measurement": "soluble on expression in E. coli", "result": "soluble"}
    ]},
    {"sequence": "MGSDKIHHHHHHMEVIRLDKVSLWRRTQEEFSYDLKKTLLSLIEGKYRKPAKKLVLDNVDLVVEKGDKIGIIGANGSGKSTLLKIISGILQPTTGTVRVRGQVAPLIELGAGFDAEISVMDNILLYGVLLGFSRAEMKERANSILEFAELQDYALVPVKGLSSGMVARLGFSIATDVQPNILILDEVLSVGDENFKNKCKQRIDNFWNGDATVLVVSHDLQFVKQYCNQLVWLSHGKIEFIGDAGEAIQNYLSTLTST", "values": [
      {"measurement": "soluble on expression in E. coli", "result": "not soluble"}
    ]},
    {"sequence": "MRTFDDMLSKQLQDEEFKKEYDAIQPEMDVIRAIVDARTSQNMTQKELAERTGINQADISKLENGTRNPSVNLLKRLADAEMVLVRGSKDNVKPTQND", "values": [
      {"measurement": "soluble on expression in E. coli", "result": "not soluble"}
    ]},
    {"sequence": "MTEPKKEIIEDENHGISKKIPTDPRQYEKVTEGCRLLVMMASQEEERWAEVISRCRAANGSIKFYVHYIDCNRRLDEWVQSDRLNLASCELPKKGGKKGAHLREENRDSNENEGKKSGRKRKIPLLPMDDLKAESVDPLQAISTMTSGSTPSLRGSMSMVGHSEDAMTRIRNVECIELGRSRIQPWYFAPYPQQLTSLDCIYICEFCLKYLKSKTCLKRHMEKCAMCHPPGNQIYSHDKLSFFEIDGRKNKSYAQNLCLLAKLFLDHKTLYYDTDPFLFYVLTEEDEKGHHIVGYFSKEKESAEEYNVACILVLPPFQKKGYGSLLIEFSYELSKIEQKTGSPEKPLSDLGLLSYRSYWSMAIMKELFAFKRRHPGEDITVQDISQSTSIKREDVVSTLQQLDLYKYYKGSYIIVISDEKRQVYEKRIEAAKKKTRINPAALQWRPKEYGKKRAQIMF", "values": [
      {"measurement": "soluble on expression in E. coli", "result": "not soluble"}
    ]},
    {"sequence": "MAMTKLDATLAMLKELTDARGIAGNEREPREVMKKYIEPFADELSTDNLGSLVAKKVGEENGPKIMVAGHLDEVGFMITQIDDKGFLRFQTVGGWWSQVMLAQRVTIVTRKGDVTGVIGSKPPHILPPEARKKPVEIKDMFIDIGASSQEEAMEWGVRPGDQVVPYFEFQVMKNEKMLLAKAWDNRIGCAIAIDVLKQLKDEKHPNVVYGVGTVQEEVGLRGAKTSANYIKPDIAFAVDVGIAGDTPGVTSKEAQSKMGDGPQIILYDASVIGHTGLRDFVVDVADELQIPYQYDSVAGGGTDAGAIHIAVNGIPSMAITIATRYIHSHAAMLHRDDYENAVKLIVEVIKRLDKEAVHNITFN", "values": [
      {"measurement": "soluble on expression in E. coli", "result": "not soluble"}
    ]},
    {"sequence": "MSLIPVVLSGGAGTRLWPVSREGQPKPFMRLPDGQTLLGKTYRRAAGLLAGHGEIVTVTNREHYFQSKDQFHAARLGRHRGHFILEPTGRNTAPAIAVAALGLQAEHGDAAVLVVMPADHLIRNEEAFREAVGHAARLAVAGHLVTFGVVPDAAETGFGYIELGDRLDEQGAAKVRRFVEKPDEETRRRYVESGGFLWNSGMFCFTASTLVDELAQHAPALLEQARACLAASAAVKMADGIQHELAGEGFAALPDISIDYALMERSARVAVVPAAFDWSDIGSWGAMSALLDADAEGNRGSGDTLFVDTRNTFVQSDGRLVATVGVDDLVVVDTSDALLIARADRVQEVRRVVQRLKDEREGHHHHHH", "values": [
      {"measurement": "soluble on expression in E. coli", "result": "soluble"}
    ]},
    {"sequence": "SAEEKVKDEAMQIMGMFQILPRLVVFDLDYTLWPFYCECRSKREMPSMYPQAKGILSALKEKGIEMAIASRSPTSDIANTFLDKLNIKPMFVAKEIYSSWSHKTEHFQKIHTRTGVPFTAMLFFDDEDRNIKSVSKMGVTSILVGDGVTLGAFRQGLTEFTQNHNSIEKNKQVWRDKYSGKPTSSETDKD", "values": [
      {"measurement": "soluble on expression in E. coli", "result": "soluble"}
    ]},
    {"sequence": "MAHHHHHHMLRHLFRCTAAWAPKRSATREQRLKERVAARMELEAQVKSRVACYPHRSLTRPALRLERHQVNTPLFHSQLLNLNKMATDLQCISFSAPKGHWDAAIVLIKGHPNEANFEVWVNPTVPGYDDRHSIAPMYGMWENCISCGACTAWVIRPQSITCSGLDEYGNEKTEVLDGMRARCLMHELDHLSGRTILDQAQGPEFIVSGIAMGQRDLWPPNFPSAEAYMTSPHQFFDYVKNGPIIPPG", "values": [
      {"measurement": "soluble on expression in E. coli", "result": "not soluble"}
    ]},
    {"sequence": "MSHSQRGLNWFNALSADASEVTGLPASLKVADGLLGEQPVRFVAVIADTNNRFPRARQGEVGLLEGWGLAKAVDDAIEQDRERAEKRALIAIVDVPSQAYGRREEALGIHQALAGAVDSYARARLAGHPVIGLLVGKAMSGAFLAHGYQANRLIALRDPGVMVHAMGKASAARVTQRSVDDLEKLAASIAPMAYDIDSYASLGLLWETLSVSQIEQPAVDDLTQVRQVLSSAIKDVQASGVDLSSRLGASNRKASAHVRQLLRAQW", "values": [
      {"measurement": "soluble on expression in E. coli", "result": "not soluble"}
    ]},
    {"sequence": "MSKNMQNTSYRKLDVDSFDPEQYDENDETVDTPGLGPDERAVQGFLSSNRLEDALHAALLSPPLKTKDQNVKDRATQLVTKVLQSFKNAEIEATVQKLSIEESDILMKYVYKSMEIGADAAVCQSLLAWHAQLVAKFGHGAIMRVFSGRQRL", "values": [
      {"measurement": "soluble on expression in E. coli", "result": "soluble"}
    ]},
    {"sequence": "MGSDKIHHHHHHMSNLLEVNSLNVQFNYDETTVQAVKNVSFELRKKHILGIVGESGSGKSITAKSILGLLPDYPDHTLTGEIIFNGQSLNNLSTSALQQIRGKDISMIFQDPLSSLNPRLTIGKQITEVLFQHKRVSKSEAKSMTINILEKVGIKHATRQFDAYPHELSGGMRQRVMIAMALILKPQILIADEPTTALDASTQNQLLQLMKSLYEYTETSIIFITHDLGAVYQFCDDVIVMKDGSVVESGTVESIFKSPQHTYTKRLIDAIPDIHQTRPPRPLNNDILLKFDRVSVDYTSPSGSLYRAVNDINLAIRKGETLGIVGESGSGKSTLAKTVVGLKEVSEGFIWYNELPLSLFKDDELKSLRQEIQMIFQDPFASINPRFKVIDVIKRPLIIHGKVKDNDDIIKTVVSLLEKVGLDQSFLYRYPHELSGGQRQRVSIARALAVEPKVIVCDEAVSALDVSIQKDIIELLKQLQLDFGITYLFITHDMGVINEICDRVAVMKNGEIVELNNTEDIIKHPQSDYAKQLISEVAVIAK", "values": [
      {"measurement": "soluble on expression in E. coli", "result": "not soluble"}
    ]},
    {"sequence": "MGHHHHHHSHMKNYYYFLGQGLTLSPRLECSSTISAHCNLHLLGSSNSPVAASPVAGTTGTCHHDWLIFVFLVETGFHHIGQTGLEFLTSGDPPTLASKSAGITGVSHCAWPTFLLNDMRHSFNKNLVIIFYVPAIS", "values": [
      {"measurement": "soluble on expression in E. coli", "result": "not soluble"}
    ]}
  ]
}
